Sequences and labels used below:
B1: GST-tagged TIF2 (aa563-aa757) (domain or fragment, UniProt Q15596 563-757, looked up)
chain: QNSPVNMNPPPLSKMGSLDSKDCFGLYGEPSEGTTGQAESSCHPGEQKETNDPNLPPAVSSERADGQSRLHDSKGQTKLLQLLTTKSDQMEPSPLASSLSDTNKDSTGSLPGSGSTHGTSLKEKHKILHRLLQDSSSPVDLAKLTAEATGKDLSQESSSTAPGSEVTIKQEPVSPKKKENALLRYLLDKDDTKDI
modifications: FITC (fluorescein isothiocyanate) label in the fluorescence anisotropy assay; unlabelled in the pull-down
notes: TIF2 aa563-aa757; source: E. coli BL21 (DE3)
B2: PPARγ LBD (aa207-aa477), purified (domain or fragment, UniProt P37231-2 207-477, looked up)
chain: ESADLRALAKHLYDSYIKSFPLTKAKARAILTGKTTDKSPFVIYDMNSLMMGEDKIKFKHITPLQEQSKEVAIRIFQGCQFRSVEAVQEITEYAKSIPGFVNLDLNDQVTLLKYGVHEIIYTMLASLMNKDGVLISEGQGFMTREFLKSLRKPFGDFMEPKFEFAVKFNALELDDSDLAIFIAVIILSGDRPGLLNVKPIEDIQDNLLQALELQLKLNHPESSQLFAKLLQKMTDLRQIVTEHVQLLQVIKKTETDMSLHPLLQEIYKDLY
notes: also called PPARγ wt; PPARγ wild-type
B3: His tagged PGC1-α (aa138-aa341) (domain or fragment, UniProt O70343 138-341, looked up)
chain: EPSLLKKLLLAPANTQLSYNECSGLSTQNHAANHTHRIRTNPAIVKTENSWSNKAKSICQQQKPQRRPCSELLKYLTTNDDPPHTKPTENRNSSRDKCASKKKSHTQPQSQHAQAKPTTLSLPLTPESPNDPKGSPFENKTIERTLSVELSGTAGLTPPTTPPHKANQDNPFKASPKLKPSCKTVVPPPTKRARYSECSGTQGS
modifications: FITC (fluorescein isothiocyanate) label in the fluorescence anisotropy assay; unlabelled in the pull-down
notes: PGC1-α aa138-aa341; source: E. coli BL21 (DE3)
B4: VP16-PPARγ (LBD region of PPARγ fused to the VP16 transactivation domain) (domain or fragment, UniProt P37231 238-503, looked up)
chain: DLRALAKHLYDSYIKSFPLTKAKARAILTGKTTDKSPFVIYDMNSLMMGEDKIKFKHITPLQEQSKEVAIRIFQGCQFRSVEAVQEITEYAKSIPGFVNLDLNDQVTLLKYGVHEIIYTMLASLMNKDGVLISEGQGFMTREFLKSLRKPFGDFMEPKFEFAVKFNALELDDSDLAIFIAVIILSGDRPGLLNVKPIEDIQDNLLQALELQLKLNHPESSQLFAKLLQKMTDLRQIVTEHVQLLQVIKKTETDMSLHPLLQEIYKD
notes: plasmid provided by A. Le Maire (CBS, CNRS); also called PPARγ wt; source: COS-7 or HEK293T cells, transfected (mammalian two-hybrid fusion)

Test [1] addresses VP16-PPARγ (LBD region of PPARγ fused to the VP16 transactivation domain) (UniProt P37231). Nature of the test: mammalian two-hybrid assay. As to conditions: for response: read off a plot; for other: Dissociation ratio / other: Fold activation: Rosiglitazone against no treatment.
In test [2] the target is Gal-SMRT (ID1 + ID2, human SMRT from 982 to the C terminus) (human). Nature of the test: two-hybrid; mammalian two-hybrid in Hek293T cells (corepressors): Gal4 DBD-corepressor + VP16-PPARγ LBD + pGRE-LUC + Renilla control; with or without 1 μM Rosiglitazone for 24 h; interaction rate = luminescence divided by that of the corepressor without PPARγ.
Gal-SMRT (ID1 + ID2, human SMRT from 982 to the C terminus) (human), sequence (Q9Y618 whole entry, the tested form may be a part): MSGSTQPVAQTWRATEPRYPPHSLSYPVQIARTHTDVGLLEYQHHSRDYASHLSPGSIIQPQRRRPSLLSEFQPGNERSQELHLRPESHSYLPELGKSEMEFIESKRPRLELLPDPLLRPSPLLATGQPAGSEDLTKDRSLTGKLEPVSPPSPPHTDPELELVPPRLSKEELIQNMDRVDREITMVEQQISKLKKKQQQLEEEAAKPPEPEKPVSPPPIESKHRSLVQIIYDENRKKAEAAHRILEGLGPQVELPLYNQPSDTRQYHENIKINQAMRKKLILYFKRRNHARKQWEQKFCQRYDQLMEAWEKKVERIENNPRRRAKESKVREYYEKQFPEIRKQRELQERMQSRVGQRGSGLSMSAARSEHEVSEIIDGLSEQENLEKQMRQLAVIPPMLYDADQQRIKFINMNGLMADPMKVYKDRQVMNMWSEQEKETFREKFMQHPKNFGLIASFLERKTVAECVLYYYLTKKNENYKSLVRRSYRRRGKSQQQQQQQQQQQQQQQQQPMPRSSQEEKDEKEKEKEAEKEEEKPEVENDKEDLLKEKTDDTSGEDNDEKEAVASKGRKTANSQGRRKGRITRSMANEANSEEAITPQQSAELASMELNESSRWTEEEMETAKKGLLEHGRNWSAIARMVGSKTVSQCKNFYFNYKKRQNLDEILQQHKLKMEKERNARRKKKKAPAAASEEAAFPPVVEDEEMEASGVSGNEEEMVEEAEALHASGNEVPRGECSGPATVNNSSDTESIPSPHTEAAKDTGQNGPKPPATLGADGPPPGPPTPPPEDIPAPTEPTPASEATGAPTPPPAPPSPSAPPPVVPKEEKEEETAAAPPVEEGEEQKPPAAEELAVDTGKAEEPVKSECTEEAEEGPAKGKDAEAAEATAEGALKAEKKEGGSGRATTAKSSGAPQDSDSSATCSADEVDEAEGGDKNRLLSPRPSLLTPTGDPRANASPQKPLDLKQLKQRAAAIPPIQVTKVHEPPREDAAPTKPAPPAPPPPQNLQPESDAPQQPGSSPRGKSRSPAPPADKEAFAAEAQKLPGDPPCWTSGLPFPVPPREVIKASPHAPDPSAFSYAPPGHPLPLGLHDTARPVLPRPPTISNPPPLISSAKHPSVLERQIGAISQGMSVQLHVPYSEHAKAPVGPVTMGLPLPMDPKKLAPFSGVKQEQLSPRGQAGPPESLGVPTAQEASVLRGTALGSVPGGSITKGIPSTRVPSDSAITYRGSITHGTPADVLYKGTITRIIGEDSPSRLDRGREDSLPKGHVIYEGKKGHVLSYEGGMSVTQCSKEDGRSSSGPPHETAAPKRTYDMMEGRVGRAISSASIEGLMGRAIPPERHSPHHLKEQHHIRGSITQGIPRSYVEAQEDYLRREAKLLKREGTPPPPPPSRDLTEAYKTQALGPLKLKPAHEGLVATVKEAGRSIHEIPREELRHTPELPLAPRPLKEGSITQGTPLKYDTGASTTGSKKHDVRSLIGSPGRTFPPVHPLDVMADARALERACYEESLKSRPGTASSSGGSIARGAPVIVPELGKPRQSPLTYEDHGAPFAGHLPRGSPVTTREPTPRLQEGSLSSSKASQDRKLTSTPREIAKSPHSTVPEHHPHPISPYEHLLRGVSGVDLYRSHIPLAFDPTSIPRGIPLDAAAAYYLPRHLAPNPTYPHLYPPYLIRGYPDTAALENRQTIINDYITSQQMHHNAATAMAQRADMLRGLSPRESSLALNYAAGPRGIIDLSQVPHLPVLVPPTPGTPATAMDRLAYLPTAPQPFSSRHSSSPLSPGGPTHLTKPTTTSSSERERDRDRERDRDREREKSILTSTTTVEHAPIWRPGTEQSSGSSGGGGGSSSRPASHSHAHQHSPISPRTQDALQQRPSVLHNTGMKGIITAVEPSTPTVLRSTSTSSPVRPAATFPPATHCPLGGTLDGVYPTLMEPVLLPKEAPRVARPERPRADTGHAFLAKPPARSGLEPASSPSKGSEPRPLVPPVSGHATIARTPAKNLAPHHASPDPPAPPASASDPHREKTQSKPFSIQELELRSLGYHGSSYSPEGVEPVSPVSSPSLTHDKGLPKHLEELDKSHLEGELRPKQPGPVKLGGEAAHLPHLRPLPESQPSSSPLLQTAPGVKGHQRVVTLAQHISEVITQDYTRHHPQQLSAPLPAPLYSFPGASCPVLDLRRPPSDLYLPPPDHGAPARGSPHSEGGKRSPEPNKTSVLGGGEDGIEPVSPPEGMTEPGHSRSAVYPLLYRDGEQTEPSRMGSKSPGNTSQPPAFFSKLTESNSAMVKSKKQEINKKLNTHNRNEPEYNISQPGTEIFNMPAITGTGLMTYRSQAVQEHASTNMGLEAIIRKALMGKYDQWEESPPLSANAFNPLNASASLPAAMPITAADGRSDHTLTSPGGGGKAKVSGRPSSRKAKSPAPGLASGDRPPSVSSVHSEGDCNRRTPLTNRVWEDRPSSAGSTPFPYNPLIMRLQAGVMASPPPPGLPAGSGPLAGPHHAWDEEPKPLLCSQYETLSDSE
Test [3] deals with B2. Nature of the test: pull-down; coactivators: extract of His tagged PGC1-α on TALON resin or of GST-tagged TIF2 on Glutathione Sepharose, washed; then purified tag-free PPARγ or S273A, pre-incubated 20 min with rosiglitazone, 2 h at 4°C; eluate blotted with anti-PPARγ. The settings on record: both partners purified.
Test [4] deals with T1, GST-tagged SMRT (aa2041-aa2359) (UniProt Q9Y618 2041-2359, FITC (fluorescein isothiocyanate) label in the fluorescence anisotropy assay; unlabelled in the pull-down).
T1 construct: SMRT aa2041-aa2359; source: modified E. coli BL21(DE3) strain
T1 sequence (Q9Y618 2041-2359): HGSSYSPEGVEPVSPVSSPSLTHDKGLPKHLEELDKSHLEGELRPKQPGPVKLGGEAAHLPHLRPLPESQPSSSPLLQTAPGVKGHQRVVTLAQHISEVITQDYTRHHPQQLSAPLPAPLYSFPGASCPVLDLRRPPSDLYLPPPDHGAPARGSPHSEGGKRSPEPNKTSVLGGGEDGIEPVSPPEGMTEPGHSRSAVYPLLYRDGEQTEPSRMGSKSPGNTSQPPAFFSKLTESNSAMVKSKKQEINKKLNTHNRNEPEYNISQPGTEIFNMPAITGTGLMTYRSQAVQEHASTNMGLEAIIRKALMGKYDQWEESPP
The test is described as follows: fluorescence polarisation; fluorescence anisotropy: PPARγ wt, S273A or S273D (200 μM to 6 nM) titrated into FITC-labelled affinity purified corepressor, in the elution buffer of the corepressor; Kd from a Hill model. As to conditions: both partners purified. For orientation: In fluorescence polarisation assays a small probe gives low polarisation when free and higher when bound to something large.

In test [5] the target is B2. Nature of the test: fluorescence polarisation; fluorescence anisotropy: PPARγ wt, S273A or S273D (200 μM to 6 nM) titrated into FITC-labelled affinity purified coactivator, in the elution buffer of the coactivator, with Rosiglitazone (3× molar excess); Kd from a Hill model. The settings on record: both partners purified.
A further test has as its target Gal-SMRT ID2m (human). Nature of the test: two-hybrid; mammalian two-hybrid in Hek293T cells (corepressors): Gal4 DBD-corepressor + VP16-PPARγ LBD + pGRE-LUC + Renilla control; with or without 1 μM Rosiglitazone for 24 h; interaction rate = luminescence divided by that of the corepressor without PPARγ.
The target in test [6] is T2, Gal-TIF2 (three interaction domains, human TIF2 624-869) (human, UniProt Q15596 624-869).
T2 construct: also called TIF2 wt; source: COS-7 cells, transfected (mammalian two-hybrid fusion)
T2 sequence (looked up): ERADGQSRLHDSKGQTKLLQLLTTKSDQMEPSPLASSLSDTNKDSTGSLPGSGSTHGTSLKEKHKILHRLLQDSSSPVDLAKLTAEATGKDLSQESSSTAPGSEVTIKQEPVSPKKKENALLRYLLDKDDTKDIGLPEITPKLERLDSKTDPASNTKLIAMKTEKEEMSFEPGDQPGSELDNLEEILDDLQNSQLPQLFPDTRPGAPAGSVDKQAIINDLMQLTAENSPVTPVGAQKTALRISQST
Nature of the test: two-hybrid; mammalian two-hybrid in COS-7 cells (coactivators): Gal4 DBD-coactivator + VP16-PPARγ LBD + pGRE-LUC + Renilla control; with or without 1 μM Rosiglitazone for 24 h; interaction rate = luminescence divided by that of the empty Gal4 vector. As to conditions: partners not purified.

Test [7] concerns the target T3, Gal-TRAP220 (ID1 + ID2, human TRAP220 404-654) (human, UniProt Q15648 404-654).
T3 construct: human TRAP220, amino acids 404 to 654 (ID1 + ID2), in the vector pM (Clontech); source: COS-7 cells, transfected (mammalian two-hybrid fusion)
The test is described as above. The settings on record: partners not purified.

Test [8] has as its target T4, Gal-PGC1-α (mouse PGC1-α 136-340) (mouse, UniProt O70343 136-340).
T4 construct: mouse PGC1-α, amino acids 136 to 340, in the vector pM (Clontech); holds ID1 LKKLL (residues 142-146); also called PGC1-α wt; Gal4-PGC1-α; source: COS-7 cells, transfected (mammalian two-hybrid fusion)
T4 sequence (looked up): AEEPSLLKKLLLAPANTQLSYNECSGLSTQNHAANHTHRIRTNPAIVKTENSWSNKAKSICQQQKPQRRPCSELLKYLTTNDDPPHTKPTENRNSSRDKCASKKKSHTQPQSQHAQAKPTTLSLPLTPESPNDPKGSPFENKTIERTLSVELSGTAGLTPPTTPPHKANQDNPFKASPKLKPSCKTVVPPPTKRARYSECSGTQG
Described as above. As to conditions: partners not purified.

The target of test [9] is T4, Gal-PGC1-α (mouse PGC1-α 136-340). Nature of the test: two-hybrid; as a1 (COS-7 cells, coactivators) with co-transfected pCDNA-CDK5 (CDK5 and P35). As to conditions: partners not purified.
Test [10] addresses T5, Gal-NCoR (ID1 + ID2 + ID3, mouse NCoR from 1629 to the C terminus) (mouse, UniProt Q60974 1629-2453).
T5 construct: mouse NCoR from 1629 to the C terminus (ID1 + ID2 + ID3), in the vector pM (Clontech); Plasmid provided by A. Le Maire (CBS, CNRS); also called NCoR wt; source: HEK293T cells, transfected (mammalian two-hybrid fusion)
T5 sequence (looked up): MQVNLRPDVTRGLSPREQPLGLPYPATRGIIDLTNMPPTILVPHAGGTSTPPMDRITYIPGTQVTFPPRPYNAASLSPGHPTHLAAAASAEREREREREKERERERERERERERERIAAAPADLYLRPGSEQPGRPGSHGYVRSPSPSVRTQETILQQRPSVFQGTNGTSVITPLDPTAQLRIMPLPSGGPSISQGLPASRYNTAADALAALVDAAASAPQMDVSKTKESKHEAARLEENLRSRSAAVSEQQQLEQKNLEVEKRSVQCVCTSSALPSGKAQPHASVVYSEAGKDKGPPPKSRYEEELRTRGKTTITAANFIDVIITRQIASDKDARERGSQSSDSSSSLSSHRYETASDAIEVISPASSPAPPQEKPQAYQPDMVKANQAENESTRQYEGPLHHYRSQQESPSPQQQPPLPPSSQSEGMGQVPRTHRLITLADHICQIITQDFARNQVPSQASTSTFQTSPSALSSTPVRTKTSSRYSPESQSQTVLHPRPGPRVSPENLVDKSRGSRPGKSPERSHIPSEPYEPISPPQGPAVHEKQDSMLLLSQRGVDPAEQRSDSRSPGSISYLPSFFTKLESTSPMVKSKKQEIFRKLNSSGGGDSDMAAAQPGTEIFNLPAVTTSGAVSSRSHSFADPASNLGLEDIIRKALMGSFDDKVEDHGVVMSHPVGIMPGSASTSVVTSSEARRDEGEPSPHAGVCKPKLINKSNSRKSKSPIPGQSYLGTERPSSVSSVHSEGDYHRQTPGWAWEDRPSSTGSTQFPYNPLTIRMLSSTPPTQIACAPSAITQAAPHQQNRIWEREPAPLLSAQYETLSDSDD
Nature of the test: two-hybrid; mammalian two-hybrid in Hek293T cells (corepressors): Gal4 DBD-corepressor + VP16-PPARγ LBD + pGRE-LUC + Renilla control; with or without 1 μM Rosiglitazone for 24 h; interaction rate = luminescence divided by that of the corepressor without PPARγ. As to conditions: partners not purified.

For test [11], the target named is T5, Gal-NCoR (ID1 + ID2 + ID3, mouse NCoR …). The test is described as follows: two-hybrid; as a2 (Hek293T cells, corepressors) with co-transfected pCDNA-CDK5 (CDK5 and P35). The settings on record: partners not purified.

Consider 9 molecules from paper PMC7729135, “PPARγ S273 Phosphorylation Modifies the Dynamics of Coregulator Proteins Recruitment” (Frontiers in Endocrinology, 2020).

T3 sequence (Q15648 404-654): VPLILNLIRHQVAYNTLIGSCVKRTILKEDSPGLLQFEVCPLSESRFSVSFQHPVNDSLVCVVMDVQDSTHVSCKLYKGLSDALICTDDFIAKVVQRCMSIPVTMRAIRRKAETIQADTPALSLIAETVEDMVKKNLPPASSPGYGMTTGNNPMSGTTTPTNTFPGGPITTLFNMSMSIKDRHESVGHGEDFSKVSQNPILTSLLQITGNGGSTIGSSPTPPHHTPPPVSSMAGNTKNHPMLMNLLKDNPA

With “Gal-NCoR (ID1 + ID2 + ID3, mouse NCoR from 1629 to the C terminus) (from UniProt Q60974) ID3 IDVII changed to IDVAA”, the response was determined as 2.2 in [1] (No treatment, parent: est. 3.6) and 1.3 in test [1] (Rosiglitazone, parent: est. 1.2). Also, the other: Dissociation ratio in [1] stood at 39%.

For the molecule “Gal-SMRT (ID1 + ID2, human SMRT from 982 to the C terminus) V2097A; I2098A”, the response in test [1] (No treatment, parent: est. 2.3) was found to be 2.4. Besides, in test [1], the other: Dissociation ratio was determined as 58%.

“Gal-TIF2 (three interaction domains, human TIF2 624-869) (from UniProt Q15596) ID2 LHRLL changed to LHRAA”: the response in test [1] (No treatment, parent: est. 1.0) came to 1.3; in test [1] (Rosiglitazone, parent: est. 1.4), 1.7. The other: Fold activation in test [1] amounted to 0.3.

In the case of “Gal-TIF2 (three interaction domains, human TIF2 624-869) (from UniProt Q15596) ID3 LRYLL changed to LRYAA”, the response stood at 0.45 in [1] (No treatment, parent: est. 0.95) and 0.75 in test [1] (Rosiglitazone, parent: est. 1.3). This molecule yielded an other: Fold activation in test [1] of 0.5.

Turning to “VP16-PPARγ (LBD region of PPARγ fused to the VP16 transactivation domain) (from UniProt P37231 238-503) (domain or fragment)”, in [2], the dissociation rate in the presence of the ligand (Rosiglitazone) is 65%.

On to B1, for which the binding result in test [3] is “binds”.

One may read the Kd as a measure of binding affinity in units of concentration. Read a low Kd as a tighter complex. For the molecule B2, binding in test [4] was characterised by a dissociation constant (Kd) of 4.06 ± 1.01 µM.

Molecule B3 displayed a Kd in [5] of 55.8 ± 2.9 µM.

For B4, the fold reduction of the interaction against SMRT wt with Gal-SMRT ID2m (human) was found to be 6 fold. The figures for the “interaction rate in the two-hybrid assay (fold), in absence of CDK5” value in test [6], in test [8] and in [10] were 1.5 fold, 5 fold and 4 fold, respectively. Further, the “interaction rate in the two-hybrid assay (fold)” value in test [7] was found to be 4 fold; in [8], 7 fold. Also, the “interaction rate in the two-hybrid assay (fold), with CDK5” value in [9] and in test [11] was 2 fold each time.
